Measured values: the nanobody polyreactivity screen of Harvey et al. (2022)

assay: yeast display, Sf9 membrane polyspecificity reagent, FACS + sequencing; frameworks hold sequencing errors
In short: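 Sorting gates, low and high (top ~1%), were placed on anti-HA fluorescence to track expression and on streptavidin fluorescence to track reagent binding. A clone's polyreactivity label is taken from the gate it came out of. The reagent was 10% biotinylated, detergent-solubilized Sf9 membrane, applied for 1 hour at 4 °C to galactose-induced yeast display cells.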

Row | Sequence | polyreactivity (PSR sort gate)
1 | QVQLVQTGGGLVQAGGSLRLSCAASGRIFLSYTRGWYSQAPGKERELVATIDSRVSTNYADSVKGRFTISRDNAKNTVYLQMNSLKPEDTAVYYCNADGFYSSHGYDYCGQGTQVTVSS | low polyreactivity
2 | QVQLVQTGGGLVQAGGSLRLSCAASGRIFYRYDMGCYRQAPGKERSLVAAIRYSGGRTYYADSVKGRFTISRDNAKNTVYLQMNSLKPEDNAVYYCADDEFFWSSEEDYWGQVTQVTVSS | low polyreactivity
3 | QVQLVVSGGGLVQAGGSLRLSCAASGFIFVNYAMGWYRQAPGKDGELVAAISRGGGRTYYADSVKGRFTISRDNAKNTVYLQMNSLKPEDTAVYYCNARRLGYHQRYFWGQGTQVTVSS | high polyreactivity
4 | QVQLVVSGGGLVQAGGSLRLSCAASGFTFRYYAMGWYRQAPGKEREMVAAITRGAGSTYYADSVKGRFTITRDNAKNTVYLQMNSLKPEDTAVYYCAAEFFQYYVATPFDPYNYWGQGTQVTVSS | low polyreactivity
5 | QVQLVVSGGGLVQAGGSLRLSCAASGIIFPFYVMGWYRQAPGKERELVAAITWSGDGTYYADSVKGRFTISRDNAKNTVYLQMNSLKPEDTAVYYCAAQWYYGGVKYYYWGQGTQVTVSS | low polyreactivity
6 | QVQLVVSGGGLVQAGGSLRLSCAASGNIFESYGMGGYRQAPGKERELVANINTSCGSTYYADSVKGRFTISRDNAKNTVYLQMNSLKPEDTAVYYCAAEWYPYPWGYGYWGQGTQVTVSS | low polyreactivity
7 | QVQLVVSGGGLVQAGGSLRLSCAASGSTFFKYVMGWYIQAPGKERELVAAITWRGGRTYYADSVKGRFTISRDNEKNTVYLQMNSLIPEDTAVYYCAAYDQSLYGRRYDYWGQGTQVTVSS | high polyreactivity
8 | QVQLVVSGGGLVQAGGSLRLSCAASGSTIASNAMGWYRQAPGKERELVAGISSSDGGTYYADSVKGRFTISRDNAKNNVYLEMNSLKREDTAVYYCNAPPGTFQWQGHSDYWGQGTQVTVSS | low polyreactivity
9 | QVQLVVSGGGLVQGGGSLRLSWAASGFILALNAMGWYIQAPGKEREFVADISWSGDSTYYADSVKGRFTISRDNAKNTFYLQMNSLKPEDTAVYYCAADPYYNWGYYYWGQGTQVTVSS | low polyreactivity
10 | QVQLVVSGGGLVQPGGSLRLSCAASGRIFGLYAMGWYRQAPGKEREVVAAYADSVKGRFTISRDNAKNTVYLQMNSLKPEDTAVYYCAKGPLYAGYSIDLRDFNYWGQGTQVTVSS | low polyreactivity
11 | QVQMQESGGGLVQAGGTLRLSCAASGSFSADEDMGWYRQAQGKEREFVAGISVGGNTNYADSVKGRFTISRENAKNTVYLQINSLKPEDTAVYYCAVLQDVYDALDYWAQGTQVTVSS | high polyreactivity
12 | QVQPVESAGGLVQAGGSLRLSCSASGFIFKYYAMGWYRQAPGKERELVAAISYSGTRTYYADSVKGRFTISRDNAKNTVYLQMNSLKPEDTAVYYCNARDWSFVGTYDYWGQGTQVTVSS | high polyreactivity
13 | QVQPVESGGGLVHAGGSLRLSCAASGSIFWYNAMGWYRQAPGQEWELVAAINWSGGSTFYADSVKGRFTISRDNEKNTVYLQMNSLNPEDTAVYYCAADDWSTGYDFWGQGTQETVSS | high polyreactivity
14 | QVQQHESGDGLVQAVGSLRLTCAASGYISGNYYMGWYRQATGKERELVAGIDAFGSSTNYADCVKGRFTISRDNAKNTVYLQMNSLKPEDTAVYYCAARPDGDRLFYYWGQGTQVTVSS | low polyreactivity
15 | QVQQQESAGGLVQAGGSLRLSCAASGNIFVDAYMGWYRQAPGKERELVATFAPADSVKGRFTISRDNAKNTVYLQMYSLKPEDTAVYYCAAFTGYSSVFGYWGQGIQVTVSS | high polyreactivity
16 | QVQQQESGGGLVQAGGSLRLSCAASGTIFQLTVMGRYRQAPGKERELVASIDYGGNTNYADSVKGRFTISRDNAKNSVYLQKNSMKPEDTEVYYCEASYESWTTHPYWGQGTQVTVSS | low polyreactivity
17 | QVQQQESGGGLVQAGGSLRLSCAASGYISVVIGMGWYRQSPGKERELVASIAYGAITYYTDSVKGRFTISRDYAKNTEYLQMNSLKAEDTAVYYCAADKPPLAYHWYWGQGTQATVSS | high polyreactivity
18 | QVQQQESGGGLVQAGGSLRQSYAASGYIFPSLAMGWYRQAPGKEREFVAAIGRGSTNNYADSVKGRFTISRDNAKNTAYQQMNSLKPEDTAVYYCAAAASPLTRHLYWGQGTQVTVSS | low polyreactivity
19 | QVQQQESGGGLVQVGGSQRLSCAASGNIFYNYAMGWYRHAQGKEREFDATINHGTSINYADSVKGRFTISRDNAKNTVYLQMNSLKPEDTAVYYCAADLSWTDNLFYWGQGTQVTVSS | low polyreactivity
20 | QVQQQESGGGMEQARGSLRLSCAASGYISWADYMGCYRQAPGKERELVAVIGYGSTTYYADSVKGRFTMSRDNAKNTAYLQMNSLKPEDTAVYYCAVGWYRDTAYKYWGQGTQVTVSS | low polyreactivity
21 | QVQQVESGGGLVQAGGSLRLSCAATGIIFNDYHMGWYRQAPGKERELVAAINYSGGSTYYADSVKGRFTISRDNAKNTVYLQMNSLKPEDTAVYYCAADNAVWEYDYWGQGTQVTVSS | low polyreactivity
22 | QVQQVESGGGLVQAGGSLRLSCAATGRTFALYAMGWYRLAPGKERELVAGITFRGGSTYYADSVKGRFTISRDNAKNTVYLQMNSLKPEDTAVYYCAAERWRWYYSWTMDYWGQGTQVTVSS | high polyreactivity
23 | QVQREESGGGLVQAGGSLRLSGAASGIIFHPYAMGWYRQAPGKERELVAAISWSGDGTYYADSVKGRFTISRDNAKNTVYLQMNSLKPEDTAVYYCNAFSQSWNFYGDGDYWGQGTQLTVSS | low polyreactivity
24 | QVQRLESRGGLVQAGGSLRLSCAASGSTFDYNAMGWYRQAPGKERELVAAITSSGGSTYYADSVKGRFTISRDNAKNNVYLQMHSLKPEDTAVYYCNADGYVPDYEYWGQGTQVTVSS | high polyreactivity
25 | QVQRVDSGGGLVQAGGSLRLTCAASGSTFDKYAMGWYRQAPGKERELVAAISLSGGSTYYADSVKGRFTISRDNAKNTVYLQMNSLKPEDTAVYYCNTPPSRYVRYGIYRYDYWGQGTQVTVSS | high polyreactivity
26 | QVQRVESAGGLVQAGGSLRLSCAASGRTFSGNARGWYRPAPGKERELVAGISTTGGSTYYADSVKGRFTISRDNAKNTVYLEMNSLKPADTAVYYCAAYSASNGGYDYWGQGTQVTVSS | high polyreactivity
27 | QVQRVESAGGLVQAGGSLRLSCAPTGSIFSTNPMGWYSQSPGTERELVATITWSDGSTYYADSVKGRFTISRDNAKNTVYLQLNSLKPEDTAVYDCATPYKRDFYKGGDYWAQGTQVTVSS | low polyreactivity
28 | QVQRVESGGGLGQAGGSLRLSCDASGRTFSGNTMGWYRQAPVKERELVAVINSGTRTYYADSVKGRFTISRDNAKNTVYLQMYSLKPEDTAGYYCATRCKSPSSKYGYWGQGTQVNVSS | high polyreactivity
29 | QVQRVESGGGLVLAGGSLRLSCAASAHIFAWYAMGWYRQAPGNERELVADISSRGGSTYYADSVKGRITISRDNAKNTVYLQMNSLKPEDTAVYSCAAVCYWTQDYDYWGQGTQVTVSS | low polyreactivity
30 | QVQRVESGGGLVQAAASLRLSCAASGRTFYVYTMGWYRPAPGKERELVAAITSGGSTNYADSVKGRFTISRDNAKNTVSLHMNSLKPEVTAVYYCAARVSTVFKRYYYWGQGTQVTVSS | high polyreactivity
